Target: SmLip residues 27-176 (mature Lip minus signal peptide) fused to T18 (pSC072) or to T25 (pSC080) (Serratia marcescens)
Assay: two-hybrid

Q: Which β-galactosidase activity (two-hybrid output) does the source give for “SmLip residues 27-176 (mature Lip minus signal peptide) fused to T18 (pSC072) or to T25 (pSC080) (domain or fragment)” here?
A: > 5000 Miller units

From PMC3225178
